B1: Serine/threonine-protein phosphatase 5 (Homo sapiens), P53041 (parent)
chain: MAMAEGERTECAEPPRDEPPADGALKRAEELKTQANDYFKAKDYENAIKFYSQAIELNPSNAIYYGNRSLAYLRTECYGYALGDATRAIELDKKYIKGYYRRAASNMALGKFRAALRDYETVVKVKPHDKDAKMKYQECNKIVKQKAFERAIAGDEHKRSVVDSLDIESMTIEDEYSGPKLEDGKVTISFMKELMQWYKDQKKLHRKCAYQILVQVKEVLSKLSTLVETTLKETEKITVCGDTHGQFYDLLNIFELNGLPSETNPYIFNGDFVDRGSFSVEVILTLFGFKLLYPDHFHLLRGNHETDNMNQIYGFEGEVKAKYTAQMYELFSEVFEWLPLAQCINGKVLIMHGGLFSEDGVTLDDIRKIERNRQPPDSGPMCDLLWSDPQPQNGRSISKRGVSCQFGPDVTKAFLEENNLDYIIRSHEVKAEGYEVAHGGRCVTVFSAPNYCDQMGNKASYIHLQGSDLRPQFHQFTAVPHPNVKPMAYANTLLQLGMM

Variants of: B1
Conditions: with hs90b_human HSP90AB1, P08238
hs90b_human HSP90AB1, P08238, sequence (P08238 whole entry): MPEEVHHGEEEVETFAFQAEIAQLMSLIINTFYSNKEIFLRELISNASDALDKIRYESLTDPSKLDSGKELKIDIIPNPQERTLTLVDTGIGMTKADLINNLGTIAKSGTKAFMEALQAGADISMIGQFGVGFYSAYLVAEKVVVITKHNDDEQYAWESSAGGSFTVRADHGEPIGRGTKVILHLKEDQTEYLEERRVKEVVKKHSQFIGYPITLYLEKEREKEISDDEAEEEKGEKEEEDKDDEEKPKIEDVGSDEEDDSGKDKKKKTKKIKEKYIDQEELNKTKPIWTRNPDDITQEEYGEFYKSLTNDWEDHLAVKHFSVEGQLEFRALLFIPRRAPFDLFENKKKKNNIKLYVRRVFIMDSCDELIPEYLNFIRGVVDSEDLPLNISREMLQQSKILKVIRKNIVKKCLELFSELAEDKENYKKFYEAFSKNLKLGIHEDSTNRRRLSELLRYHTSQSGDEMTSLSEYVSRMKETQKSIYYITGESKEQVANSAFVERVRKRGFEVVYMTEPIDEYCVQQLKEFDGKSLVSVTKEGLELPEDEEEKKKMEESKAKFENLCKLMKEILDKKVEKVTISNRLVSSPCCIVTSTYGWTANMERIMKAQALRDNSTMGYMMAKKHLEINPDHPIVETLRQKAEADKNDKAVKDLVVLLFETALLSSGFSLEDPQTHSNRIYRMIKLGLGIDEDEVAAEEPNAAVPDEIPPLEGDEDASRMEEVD

effect of a mutation on the interaction	Variant
increasing interaction	MAMAEGERTECAEPPRDEPPADGALKRAEELKTQANDYFKAKDYENAIKFYSQAIELNPSNAIYYGNRSLAYLRTECYGYALNDATRAIELDKKYIKGYYRRAASNMALGKFRAALRDYETVVKVKPHDKDAKMKYQECNKIVKQKAFERAIAGDEHKRSVVDSLDIESMTIEDEYSGPKLEDGKVTISFMKELMQWYKDQKKLHRKCAYQILVQVKEVLSKLSTLVETTLKETEKITVCGDTHGQFYDLLNIFELNGLPSETNPYIFNGDFVDRGSFSVEVILTLFGFKLLYPDHFHLLRGNHETDNMNQIYGFEGEVKAKYTAQMYELFSEVFEWLPLAQCINGKVLIMHGGLFSEDGVTLDDIRKIERNRQPPDSGPMCDLLWSDPQPQNGRSISKRGVSCQFGPDVTKAFLEENNLDYIIRSHEVKAEGYEVAHGGRCVTVFSAPNYCDQMGNKASYIHLQGSDLRPQFHQFTAVPHPNVKPMAYANTLLQLGMM [G83N]

From IntAct's records for PubMed 16531226
